Data as given in patent US20240376224A1 (University of California, published 2024).

Experiments:
[1] = target: T1, mouse fl-CDCP1 (recombinant uncleaved mouse CDCP1) (mouse, UniProt Q5U462 30-666); experiment: BLI (Octet), mouse fl-CDCP1-Fc on the sensor, IgG CL03 as analyte
T1 construct: The mouse antigen made was fl-CDCP1-Fc; also called mouse fl-CDCP1-Fc
T1 sequence: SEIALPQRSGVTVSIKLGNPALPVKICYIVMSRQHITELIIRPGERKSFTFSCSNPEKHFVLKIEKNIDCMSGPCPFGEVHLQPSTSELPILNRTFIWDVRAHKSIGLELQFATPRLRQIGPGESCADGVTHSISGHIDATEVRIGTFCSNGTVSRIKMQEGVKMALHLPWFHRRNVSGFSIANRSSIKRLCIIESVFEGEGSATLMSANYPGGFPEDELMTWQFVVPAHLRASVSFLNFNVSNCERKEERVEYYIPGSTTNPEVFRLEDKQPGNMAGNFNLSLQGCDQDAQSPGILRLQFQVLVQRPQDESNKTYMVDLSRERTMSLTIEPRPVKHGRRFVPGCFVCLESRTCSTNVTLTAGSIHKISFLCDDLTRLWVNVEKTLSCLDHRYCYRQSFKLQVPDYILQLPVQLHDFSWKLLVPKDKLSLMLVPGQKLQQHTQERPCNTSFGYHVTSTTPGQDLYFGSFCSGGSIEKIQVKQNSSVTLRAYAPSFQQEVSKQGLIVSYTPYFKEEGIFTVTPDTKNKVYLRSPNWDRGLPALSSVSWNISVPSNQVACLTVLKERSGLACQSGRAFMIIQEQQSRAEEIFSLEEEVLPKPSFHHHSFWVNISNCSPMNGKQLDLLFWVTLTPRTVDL

[2] = target: T2, mouse c-CDCP1 (recombinant cleaved mouse CDCP1) (mouse, UniProt Q5U462 30-368; Q5U462 369-666, limits assumed); experiment: BLI (Octet), mouse c-CDCP1-Fc on the sensor, IgG CL03 as analyte
T2 construct: Mouse antigens made were c-CDCP1-Fc (Cut 1) and (Cut 2); also called mouse cleaved CDCP1; cleaved mCDCP1
T2 sequence 1: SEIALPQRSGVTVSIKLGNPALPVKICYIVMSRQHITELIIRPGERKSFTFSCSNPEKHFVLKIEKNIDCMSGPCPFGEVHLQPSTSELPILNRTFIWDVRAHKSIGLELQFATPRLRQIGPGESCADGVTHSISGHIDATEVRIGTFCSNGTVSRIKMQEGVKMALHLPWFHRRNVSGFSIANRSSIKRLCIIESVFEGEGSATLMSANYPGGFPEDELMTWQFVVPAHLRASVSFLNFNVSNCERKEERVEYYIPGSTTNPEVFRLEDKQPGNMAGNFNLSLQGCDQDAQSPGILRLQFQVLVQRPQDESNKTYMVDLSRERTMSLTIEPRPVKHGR
T2 sequence 2: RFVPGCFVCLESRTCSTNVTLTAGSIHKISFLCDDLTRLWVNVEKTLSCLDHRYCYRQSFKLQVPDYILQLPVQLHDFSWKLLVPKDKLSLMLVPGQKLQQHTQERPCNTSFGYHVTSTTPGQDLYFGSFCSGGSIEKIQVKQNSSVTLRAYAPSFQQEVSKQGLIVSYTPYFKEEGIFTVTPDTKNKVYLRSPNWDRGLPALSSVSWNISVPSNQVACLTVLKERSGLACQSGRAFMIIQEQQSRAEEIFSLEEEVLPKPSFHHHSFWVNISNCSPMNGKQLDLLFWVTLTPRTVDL

His-CUB1 = target: T3, His-CUB1 (human, UniProt Q9H5V8 30-367, limits assumed); experiment: sandwich ELISA, CL03 as capture antibody, antigen titrated (ng/mL), anti-CDCP1 polyclonal antibody for detection
T3 construct: also called CUB1 (His-CUB1, soluble NTF); not shown: His tag
T3 sequence: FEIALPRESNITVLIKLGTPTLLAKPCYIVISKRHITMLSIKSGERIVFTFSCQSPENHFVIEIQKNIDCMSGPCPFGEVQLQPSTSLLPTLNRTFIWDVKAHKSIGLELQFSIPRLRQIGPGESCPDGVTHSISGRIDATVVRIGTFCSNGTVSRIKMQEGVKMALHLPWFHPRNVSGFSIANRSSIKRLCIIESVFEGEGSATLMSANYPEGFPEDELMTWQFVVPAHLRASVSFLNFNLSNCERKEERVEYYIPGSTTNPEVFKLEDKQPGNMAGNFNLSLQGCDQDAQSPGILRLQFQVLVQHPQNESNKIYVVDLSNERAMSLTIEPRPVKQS
Procedure: (§1) CUB1 N-terminal fragment (NTF) is present only in human serum. Since CL03 binds to an epitope on CUB1 domain that is exposed upon proteolysis, CUB1 (NTF) would serve as a sink to CL03 that decreases the viable concentration of CL03 on tumor site if it binds to CUB1 only in human serum. To further investigate the binding mechanism of CL03, an ELISA experiment was performed in which the binding of CL03 to CUB1 in human serum was evaluated. ELISA assays were performed as generally described in Example 1. Briefly, either IgG CL03 or 4A06 was used as the capture antibody; the target antigens evaluated were as presented in Table 9 below; and an anti-CDCP1 polyclonal Ab was used as the detection antibody (R&D: Cat. #AF2666).

His-TEV-CUB1 = target: T4, His-TEV-CUB1 (human, UniProt Q9H5V8 30-367); experiment: as above
T4 construct: also called CUB1 (His-TEV-CUB1, soluble NTF); not shown: His tag and TEV site
T4 sequence: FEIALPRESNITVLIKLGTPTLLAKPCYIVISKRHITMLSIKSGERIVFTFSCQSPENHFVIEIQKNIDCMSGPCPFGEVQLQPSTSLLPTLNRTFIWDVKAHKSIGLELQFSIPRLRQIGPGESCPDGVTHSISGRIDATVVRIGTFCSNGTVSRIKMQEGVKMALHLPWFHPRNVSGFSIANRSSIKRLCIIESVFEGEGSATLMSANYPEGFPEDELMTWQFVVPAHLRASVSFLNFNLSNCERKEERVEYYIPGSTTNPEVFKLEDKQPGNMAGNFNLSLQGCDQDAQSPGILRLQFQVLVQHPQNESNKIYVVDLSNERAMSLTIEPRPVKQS
Procedure: as §1

[3] = target: T5, soluble CUB1 (NTF) used as competitor (human, UniProt Q9H5V8 30-367, limits assumed); experiment: flow cytometry competition: CUB1-His (NTF) titrated against 100, 50 or 0 nM IgG CL03 on cleaved CDCP1 positive cells
T5 sequence: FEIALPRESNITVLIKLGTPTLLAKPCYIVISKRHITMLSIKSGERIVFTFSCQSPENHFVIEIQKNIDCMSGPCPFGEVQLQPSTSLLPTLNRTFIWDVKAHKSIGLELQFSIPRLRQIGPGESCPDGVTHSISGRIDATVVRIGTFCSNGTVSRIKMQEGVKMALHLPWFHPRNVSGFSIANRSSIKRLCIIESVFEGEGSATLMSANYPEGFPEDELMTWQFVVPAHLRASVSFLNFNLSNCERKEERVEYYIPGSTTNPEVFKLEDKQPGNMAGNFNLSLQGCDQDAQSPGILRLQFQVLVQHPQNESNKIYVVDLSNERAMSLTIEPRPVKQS
Procedure: To further evaluate the recognition of cleaved CDCP1 on cancer cells by CL03, a competition assay was performed to evaluate whether soluble CUB1 (NTF) could compete with the binding of CL03 on cleaved CDCP1 positive cells. […] Primary Ab (CL03 IgG) and different concentrations of CUB1 (NTF) were added to cells for 30 minutes at 4° C. Bound Abs were detected with addition of AlexaFluor-488 conjugated Goat anti-human IgG, F(ab′)2 fragment specific (Jackson ImmunoResearch: 1:1000). Cells were washed 3× with PBS+3% BSA and fluorescence was quantified using a CytoFLEX (Beckman Coulter) flow cytometer. All flow cytometry data analysis was performed using FlowJo software and Prism software (GraphPad).

binding result [1]: no binding (tested: not printed)
binding result [2]: no binding (tested: not printed)
binding result (His-CUB1): no binding (tested: 1000 ng/mL)
binding result (His-TEV-CUB1): no binding (tested: 1000 ng/mL)
binding result [3]: no binding (tested: about 800 nM)
B1: CL03 IgG (antibody, V domains shown)
VH: EVQLVESGGGLVQPGGSLRLSCAASGFNFSSYSIHWVRQAPGKGLEWVASIYPYSGSTYYADSVKGRFTISADTSKNTAYLQMNSLRAEDTAVYYCARQSHSYYSHTWWVSYGMDYWGQGTLVTVSS
VL: DIQMTQSPSSLSASVGDRVTITCRASQSVSSAVAWYQQKPGKAPKLLIYSASSLYSGVPSRFSGSRSGTDFTLTISSLQPEDFATYYCQQSGQRPITFGQGTKVEIKR
notes: also called IgG CL03
